Results from patent publication US20260139017A1, “COMPOSITIONS AND METHODS USING REELIN IN ALZHEIMER'S DISEASE” (The General Hospital Corporation, priority 2022, published 2026).

Experiments:
pDAB1 = experiment: Trans-nasal (MIND) delivery of mini-RELN in mice, brain pDAB1 western blot; assay type: in vivo; conditions: WT male mice, 72 h post-trans-nasal delivery
Excerpt: We used a MIND procure (trans nasal delivery using Minimally Invasive Nasal Depot (MIND), Padmakumar et al., J Control Release. 2021 Mar. 10; 331: 176-186) or intraperitoneal injection to administer miniRELN constructs into mice. MIND leverages the olfactory nerve to bypass the blood brain barrier. […] Using the MIND methodology provides one method of reaching the entorhinal cortex with minimal systemic exposure. […] (Jackson Laboratory) were housed under regular light/night cycle. All procedures were conducted under approved IACUC animal protocols. Prior to incision, the nasal region was shaved and cleaned using betadine and 70% alcohol and mouse subcutaneously injected with buprenorphine HCl and meloxicam (5 mg/kg). The nasal cavity was then opened using a scalped and nasal mucosa exposed using a microdrill. Once the mucosa was exposed, gel dispersion of either PBS or mini-RELN constructs (Innovagen) in 20% Pluronic (Sigma Aldrich) was subcutaneously delivered in the surgically-generated pocket. Mice were injected with meloxicam for 3 days prior euthanasia at day 4 to collect the brain tissue used for post-mortem analysis.
Western blotting was performed as follows. 20 ug protein homogenates were prepared under reducing and denaturing conditions using Laemmli buffer enriched with 10 mM DTT and 5 min boiling. Samples were electrophoretically separated in a 4-20% Gel at 90V and protein transferred to a PVDF membrane using iBlot™ 2 Dry Blotting System. The membrane was blocked using Intercept® (TBS) Blocking Buffer for 2 hours. We detected pDAB1 (Tyr232; 1:1000, rabbit, #3325 Cell signaling), and Beta actin (1:5000, mouse, #66009-1-Ig, Proteintech). Antibodies were diluted using Intercept® (TBS) Blocking Buffer and incubated overnight at 4C under gentle shaking. Prior secondary antibody incubation, membranes were washes 2 times using TBS-T for 10 minutes. As secondary antibodies we used IR Dye 800n CW Goat-anti-Rabbit (925-32211, Licor) and IR Dye 680 CW Goat-anti-Mouse (925-68070, Licor) both diluted 1:10000 in blocking buffer for 1 h at room temperature under gentle shaking. Membranes were washed three times with TBS-T prior IR detection using Odyssey imager. To quantify the results, each band was quantified using ImageJ and data expressed as pDAB1:βActin ratio normalized to the control.

pDAB1 (Tyr232) = experiment: HRECs treated 5 minutes with recombinant mini-RELN, pDAB1 western blot; assay type: cell-based, human
Procedure, shortened: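 Serum-starved (2 h) HRECs at passage 7 given recombinant mini-RELN constructs or mouse Reelin at 4 ug/mL for 5 min, then lysed. Western blot of 3.5 ug lysate for pDAB1 (Tyr232) with IR detection. Value is pDAB1:total protein band ratio normalized to control.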

pTau S396 = experiment: Intraperitoneal mini-RELN in MAPT P301S Tau Tg mice, pTau S396 immunofluorescence; assay type: in vivo; conditions: 6 months old female MAPT P301S mice, intraperitoneal days 1-4, hippocampal and entorhinal regions, vs PBS
Protocol: The effects of systemic delivery of mini-RELN peptides was evaluated in vivo. 6 months old female MAPT P301S Tau Tg mice were injected intraperitoneally on day 1 with 500 μL and on day 2-4 with 250 μL solutions of either vehicle (PBS) or mini-RELN peptides. On Day 5, mice were euthanized with saturating concentration CO2 gas and intracardially perfused with 4% PFA. Brains were subsequently harvested and used for histological analyses.
Immunofluorescence staining of murine brains was performed as follows. 24 hours post fixation with 4% PFA at 4° C., sagittal brain sections were obtained at 1 mm thickness using a stainless-steel brain matrix. The entorhinal-hippocampal section of each brain was chosen for Clarity using Binaree® Tissue Clearing™ Kit (HRTC-012) following the kit guidelines. Sections were incubated with pTauS396 primary antibody for 72 h followed by secondary antibody: Alexa 647, and DAPI for 1 h. Subsequently, sections were imaged using confocal SP8 microscope for quantification. Fourteen images were taken at 63× magnification per group. Fluorescence intensity of pTau was quantified automatically using Matlab (2021a). Otsu's thresholding method was used to get a mask of the image signal and then the mean intensity of the signal was computed.

B1: RAP-FcIgG-CTRH3447R (protein)
chain: MYRMQLLSCIALSLALVTNSMAPRRVRSFLRGLPALLLLLLFLGPWPAASHGGKYSREKNQPKPSPKRESGEEFRMEKLNQLWEKAQRLHLPPVRLAELHADLKIQERDELAWKKLKLDGLDEDGEKEARLIRNLNVILAKYGLDGKKDARQVTSNSLSGTQEDGLDDPRLEKLWHKAKTSGKFSGEELDKLWREFLHHKEKVHEYNVLLETLSRTEEIHENVISPSDLSDIKGSVLHSRHTELKEKLRSINQGLDRLRRVSHQGYSTEAEFEEPRVIDLWDLAQSANLTDKELEAFREELKHFEAKIEKHNHYQKQLEIAHEKLRHAESVGDGERVSRSREKHALLEGRTKELGYTVKKHLQDLSGRISRARHNELTGGSGGNSAPLERKSSVECPPCPAPPVAGPSVFLFPPKPKDTLMISRTPEVTCVVVDVSHEDPEVQFNWYVDGVEVHNAKTKPREEQFNSTFRVVSVLTVVHQDWLNGKEYKCKVSNKGLPAPIEKTISKTKGQPREPQVYTLPPSREEMTKNQVSLTCLVKGFYPSDIAVEWESNGQPENNYKTTPPMLDSDGSFFLYSKLTVDKSRWQQGNVFSCSVMHEALHNHYTQKSLSLSPGARTGGGGSGGGGSSTRKQNYMMNFSRQHGLRRFYNRRRRSLRRYP
- pDAB1 levels in the hippocampus (pDAB1): increased
- pDAB1 levels in the midbrain (pDAB1): increased
- efficacy at RELN signaling (pDAB1) relative to comparators (pDAB1 (Tyr232); 5 minutes treatment): more effective than controls
- pDAB1 levels (pDAB1 (Tyr232); 5 minutes, 4 ug/mL recombinant protein): increased pDAB1 levels
- pTau S396 fluorescence intensity (pTau S396): decreased levels of pTau S396 signaling
